Laboratory results published in patent US20240409617A1.

Target: Human FcRn, biotinylated (human) (UniProt P55899)

**Q.** For Atezolizumab (antibody), which Kd is on record?
**A.** 19.7 nM

**Q.** What about the koff of the same substance?
**A.** 0.00877 s⁻¹

**Q.** And the kon?
**A.** 445000 M⁻¹ s⁻¹
